# Laboratory results from patent US20250011422A1 (UNIVERSITY OF FLORIDA RESEARCH FOUNDATION, published 2025).
# Read-outs that look alike come from different tables or passages of the source.
# Experiments:
# [1] = biological target: T1, recombinant human Siglec-6 human IgG1-Fc fusion protein (human, UniProt O43699 27-347); test: SPR, monovalent Fab on Siglec-6-Fc fusion protein
# T1 construct: range 27-347; The methods describe the in-house construct as the Siglec-6 ectodomain at the C-terminus of the Fc (Fc-Siglec-6); The text uses hS6-Fc, Siglec-6-Fc and Fc-Siglec-6 for the SPR and ELISA antigen without telling the orientations apart; also called hS6-Fc; Fc-hS6; not shown: human IgG1 Fc, aa 99-329
# [2] = biological target: T2, Siglec-2 (CD22) (Homo sapiens, UniProt P20273); test: ELISA, siglec-Fc fusion protein coated directly, anti-human Fab detection, absorbance 405-570 nm
# T2 construct: Fc fusion protein; member of the siglec panel (group m8); also called human Siglec-2-Fc fusion protein
# [3] = biological target: T3, Siglec-8 (Homo sapiens, UniProt Q9NYZ4); test: as above
# T3 construct: Fc fusion protein; member of the siglec panel (group m8); also called human Siglec-8-Fc fusion protein
# [4] = biological target: T4, Siglec-9 (Homo sapiens, UniProt Q9Y336); test: as above
# T4 construct: Fc fusion protein; member of the siglec panel (group m8); also called human Siglec-9-Fc fusion protein
# [5] = biological target: human CD33 (Siglec-3) (human, UniProt P20138 18-259, limits assumed); test: as above
# [6] = biological target: T1, recombinant human Siglec-6 human …; test: SPR, immobilized hS6-Fc, soluble Fab
# Procedure: (§1) Fab kinetics were determined by capturing Siglec-6-Fc (5-10 μg/mL) in HBS-EP+ buffer (Cytiva) and injecting titrated. […] Biacore evaluation software was used to calculate kₒₙ, koff, and Kd.
# [7] = biological target: T1, recombinant human Siglec-6 human …; test: SPR, Siglec-6-Fc captured, soluble Fab injected
# Procedure: as §1
# [8] = biological target: T4, Siglec-9; test: ELISA, siglec-Fc fusion protein coated directly (50 ng), anti-human F(ab')2-HRP detection, absorbance 405-570 nm
# [9] = biological target: T5, rhesus macaque (Macaca mulatta) Siglec-6 Fc fusion protein (human; Macaca mulatta (rhesus macaque), UniProt A0A1D5QH63 16-333); test: as above
# T5 construct: range 16-333; it is not the assay construct; also called rhesus Siglec-6; macaque Siglec-6; not shown: human IgG1 Fc, aa 99-329
# [10] = biological target: T6, human Siglec-6 on the cell surface (U937, MEC1-002, MEC1-hS6, primary CLL cells) (human, UniProt O43699 27-453); test: cell-based or functional assay
# [11] = biological target: T7, Siglec-6 VC28-235-His6 (human, UniProt O43699 28-235); test: SPR, T-biAb immobilised via the Fc domain, soluble Siglec-6 (aa 28-235-His6) injected
# T7 construct: It was deglycosylated with PNGase F for HDX-MS; also called soluble Siglec-6 (aa 28-235-His6); Siglec-6 ectodomain fragment
# Procedure: as §1
# [12] = biological target: T8, CD3 on human T cells (human, UniProt P07766 23-207); test: flow cytometry titration on primary human T cells, Alexa Fluor 647 anti-human Fc secondary antibody, percent biAb+ cells
# T8 construct: whole, on cells; CD3 is a complex; also called CD3+ cells
# Procedure: (§2) To determine whether T-biAb format affected the affinity to Siglec-6 or CD3 on the cell surface, T-biAbs were titrated and used to stain cells for flow cytometry (FIG. 17a).
# (§3) Flow cytometry: Fabs were used to stain cells at a concentration of 2 μg/mL, unless otherwise noted. […] Samples were analyzed on either an Accuri C6 Plus or a LSRII flow cytometer (both from BD Biosciences).
# [13] = biological target: T6, human Siglec-6 on the cell surface …; test: cell-based or functional assay; remark: listed apart in the source
# [14] = biological target: T6, human Siglec-6 on the cell surface …; test: cell-based or functional assay; remark: listed apart in the source
# [15] = biological target: T6, human Siglec-6 on the cell surface …; test: flow cytometry titration on MEC1-hS6 cells, apparent Kd; aDART-Fc format, RC-1 clone
# Procedure: as §2, §3
# [16] = biological target: T6, human Siglec-6 on the cell surface …; test: flow cytometry of whole PBMC with biotinylated JML-1 IgG1, normalised to an isotype control
# Procedure: as §3
# [17] = biological target: T6, human Siglec-6 on the cell surface …; test: cell-based or functional assay; remark: listed apart in the source
# [18] = biological target: T6, human Siglec-6 on the cell surface …; test: flow cytometry titration on MEC1-hS6 cells, apparent Kd; scFv-Fc format, JML-1 clone
# Procedure: as §2, §3
# T7 sequence (O43699 other isoform, or with tags, fused parts or gaps limits assumed): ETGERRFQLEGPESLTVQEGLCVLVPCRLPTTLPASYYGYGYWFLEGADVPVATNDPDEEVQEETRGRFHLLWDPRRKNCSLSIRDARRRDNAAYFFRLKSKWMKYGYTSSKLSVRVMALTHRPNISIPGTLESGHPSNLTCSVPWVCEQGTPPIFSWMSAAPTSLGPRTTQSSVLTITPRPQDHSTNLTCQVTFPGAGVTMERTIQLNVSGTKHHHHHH
# T6 sequence (O43699 27-453): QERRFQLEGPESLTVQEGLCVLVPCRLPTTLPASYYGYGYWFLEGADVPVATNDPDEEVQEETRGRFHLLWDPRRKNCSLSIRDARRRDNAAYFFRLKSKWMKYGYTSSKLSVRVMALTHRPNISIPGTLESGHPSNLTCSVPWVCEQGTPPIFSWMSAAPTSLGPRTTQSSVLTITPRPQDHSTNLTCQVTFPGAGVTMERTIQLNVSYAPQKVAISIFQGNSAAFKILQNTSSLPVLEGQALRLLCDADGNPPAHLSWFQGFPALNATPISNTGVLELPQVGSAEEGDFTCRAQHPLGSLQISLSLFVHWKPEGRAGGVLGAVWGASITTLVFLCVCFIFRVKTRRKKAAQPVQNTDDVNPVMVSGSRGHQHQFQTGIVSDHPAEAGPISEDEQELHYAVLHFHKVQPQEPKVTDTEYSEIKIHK
# T1 sequence (O43699 27-347 limits assumed): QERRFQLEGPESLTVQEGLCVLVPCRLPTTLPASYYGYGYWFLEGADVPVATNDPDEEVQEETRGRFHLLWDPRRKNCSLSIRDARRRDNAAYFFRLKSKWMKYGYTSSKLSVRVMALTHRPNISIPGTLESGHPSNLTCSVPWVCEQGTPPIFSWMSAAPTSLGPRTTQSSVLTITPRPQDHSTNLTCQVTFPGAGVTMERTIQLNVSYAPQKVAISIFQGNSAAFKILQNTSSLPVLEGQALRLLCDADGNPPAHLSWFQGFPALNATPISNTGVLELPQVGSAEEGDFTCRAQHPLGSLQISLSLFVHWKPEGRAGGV
# T8 sequence (P07766 23-207): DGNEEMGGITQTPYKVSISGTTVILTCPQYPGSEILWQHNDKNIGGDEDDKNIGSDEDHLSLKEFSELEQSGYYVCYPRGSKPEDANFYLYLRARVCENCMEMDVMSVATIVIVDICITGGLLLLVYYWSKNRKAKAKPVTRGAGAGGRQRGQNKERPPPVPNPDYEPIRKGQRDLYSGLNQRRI
# human CD33 (Siglec-3), sequence (P20138 18-259 limits assumed): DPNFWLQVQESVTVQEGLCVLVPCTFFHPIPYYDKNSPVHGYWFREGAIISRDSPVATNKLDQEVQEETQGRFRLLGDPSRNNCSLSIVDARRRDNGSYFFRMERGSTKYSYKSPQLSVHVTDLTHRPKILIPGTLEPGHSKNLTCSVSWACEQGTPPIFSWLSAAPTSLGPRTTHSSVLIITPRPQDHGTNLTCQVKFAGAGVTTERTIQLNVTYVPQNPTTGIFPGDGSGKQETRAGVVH
# T3 sequence (Q9NYZ4 17-363 limits assumed): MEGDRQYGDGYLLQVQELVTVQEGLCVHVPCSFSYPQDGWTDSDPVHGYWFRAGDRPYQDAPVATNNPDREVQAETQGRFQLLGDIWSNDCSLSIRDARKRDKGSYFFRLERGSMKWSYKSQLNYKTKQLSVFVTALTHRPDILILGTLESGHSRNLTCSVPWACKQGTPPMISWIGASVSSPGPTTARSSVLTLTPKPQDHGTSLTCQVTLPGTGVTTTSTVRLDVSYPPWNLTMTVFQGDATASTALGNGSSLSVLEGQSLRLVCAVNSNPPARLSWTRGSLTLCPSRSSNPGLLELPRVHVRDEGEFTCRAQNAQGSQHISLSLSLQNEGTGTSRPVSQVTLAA
# T4 sequence (Q9Y336 18-348 limits assumed): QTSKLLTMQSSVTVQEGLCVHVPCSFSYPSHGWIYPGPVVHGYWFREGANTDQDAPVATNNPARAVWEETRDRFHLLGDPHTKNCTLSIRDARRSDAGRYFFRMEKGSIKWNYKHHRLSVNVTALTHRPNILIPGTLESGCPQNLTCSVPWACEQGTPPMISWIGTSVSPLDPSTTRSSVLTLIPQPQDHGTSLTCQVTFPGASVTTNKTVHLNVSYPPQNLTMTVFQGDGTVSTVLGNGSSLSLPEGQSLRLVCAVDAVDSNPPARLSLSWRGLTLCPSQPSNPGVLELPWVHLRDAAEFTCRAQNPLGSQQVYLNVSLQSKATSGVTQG
# T5 sequence (A0A1D5QH63 entry or part of it): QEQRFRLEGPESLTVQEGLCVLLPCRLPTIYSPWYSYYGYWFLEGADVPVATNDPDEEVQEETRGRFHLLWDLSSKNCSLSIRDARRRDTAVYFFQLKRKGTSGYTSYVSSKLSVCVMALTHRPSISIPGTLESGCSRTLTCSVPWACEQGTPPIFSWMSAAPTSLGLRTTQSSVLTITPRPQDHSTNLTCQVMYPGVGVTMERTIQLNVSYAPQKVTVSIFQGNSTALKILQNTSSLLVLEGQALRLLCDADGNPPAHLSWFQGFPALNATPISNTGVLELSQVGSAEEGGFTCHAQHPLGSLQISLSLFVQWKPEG
binder,measurement,setting,value
"ARN-1 Fab (Fab, V domains shown, Human Fab from a naive human Fab library) VH: EVQLVQSGGGVVQPGRSLTLSCAAFGFTFSTYTMHWVRQAPGKGLEWVAVISYDEGFKYYADSVKGRFTISRDISKNTLYLQMNSLRTEDTAVYYCAREASAFDIWGQGTMVTVSS VL: SYVLTQPPLVSVSPGQTARITCSGENWGQKYASWYQQKPGQSPMLIIYEDTKRPSEIPERFSGSNSGSTVTLTISGTQPMDEADYYCQAWDDSTGGVFGTGTKVTVL",Kd,[1],2.63 nM
same,koff,[1],0.000268 s⁻¹
same,kon,[1],100000 M⁻¹ s⁻¹
same,binding result,[2],no binding (tested: 75 ng Fab per well)
same,binding result,[3],no binding (tested: 75 ng Fab per well)
same,binding result,[4],no binding (tested: 75 ng Fab per well)
same,binding result,[5],no binding (tested: 75 ng Fab per well)
"RC-2 Fab (Fab, V domains shown, Human Fab (kappa), expressed in E. coli) VH: EVQLLESGGGVVQPGRSLRLSCAASGFTFSSYGMHWVRQAPGKGLEWVAVISYDGSNKHYADSVKGRFTISRDNSKNTLYLQMNSLRAEDTAVYYCARGGQTIDIWGQGTMVTVSS VL: not shown",Kd,[6],2.76 nM
same,T1/2,[7],27 min
"RC-1 Fab (Fab, V domains shown, Human Fab (kappa) from the post-alloHSCT phage library, expressed in E. coli) VH: EVQLVESGGGLVQPGRSLRLSCAASGFTFSSYGMHWVRQAPGKGLEWVAVISYDGSNKYYADSVKGRFTISRDNSKNTLYLQMNSLRAEDTAVYYCANYGMDVWGKGTTVTVSS VL: not shown",Kd,[6],0.49 nM
same,T1/2,[7],37 min
same,binding result,[2],no binding (tested: 75 ng Fab per well)
same,binding result,[3],no binding (tested: 75 ng Fab per well)
same,binding result,[5],no binding (tested: 75 ng Fab per well)
same,binding result,[8],no binding (tested: 75 ng Fab per well)
same,binding result,[9],no binding (tested: 75 ng Fab per well)
"V9/RC-1 sDART-Fc (bispecific antibody, Two-chain symmetric DART-Fc) chain 1: DIQMTQSPSSLSASVGDRVTITCRASQDIRNYLNWYQQKPGKAPKLLIYYTSRLESGVPSRFSGSGSGTDYTLTISSLQPEDFATYYCQQGNTLPWTFGQGTKVEIKGGGSGGGGEVQLVESGGGLVQPGRSLRLSCAASGFTFSSYGMHWVRQAPGKGLEWVAVISYDGSNKYYADSVKGRFTISRDNSKNTLYLQMNSLRAEDTAVYYCANYGMDVWGKGTTVTVSSGCPPCPAPEAAGGPSVFLFPPKPKDTLMISRTPEVTCVVVDVSHEDPEVKFNWYVDGVEVHNAKTKPREEQYNSTYRVVSVLTVLHQDWLNGKEYKCKVSNKALGAPIEKTISKAKGQPREPQVCTLPPSRDELTKNQVSLSCAVKGFYPSDIAVEWESNGQPENNYKTTPPVLDSDGSFFLVSKLTVDKSRWQQGNVFSCSVMHEALHNRFTQKSLSLSPGA chain 2: not shown","EC50, lysis of MEC1-hS6 cells by human T cells (E:T 1:1, luciferase)",[10],0.00069 nM
same,Kd,[11],0.07 nM
same,koff,[11],0.0003 s⁻¹
same,kon,[11],4.14e+06 M⁻¹ s⁻¹
same,EC50 (read off the curve),[12],~0.3 nM
"RC-1/V9 aDART-Fc (bispecific antibody, Three-chain asymmetric DART-Fc; Chain 1 is RC-1vk-G3SG4-V9vh-ASTK-E-coil-G3-Fc knobs, chain 2 is V9vk-G4SG4-RC-1vh-ASTK-K-coil, and chain 3 is Fc holes; also called Siglec-6xCD3 T-biAb in aDART-Fc format) chain 1: not shown chain 2: DIQMTQSPSSLSASVGDRVTITCRASQDIRNYLNWYQQKPGKAPKLLIYYTSRLESGVPSRFSGSGSGTDYTLTISSLQPEDFATYYCQQGNTLPWTFGQGTKVEIKGGGGSGGGGEVQLVESGGGLVQPGRSLRLSCAASGFTFSSYGMHWVRQAPGKGLEWVAVISYDGSNKYYADSVKGRFTISRDNSKNTLYLQMNSLRAEDTAVYYCANYGMDVWGKGTTVTVSSASTKGKVAACKEKVAALKEKVAALKEKVAALKE chain 3: DKTHTCPPCPAPEAAGGPSVFLFPPKPKDTLMISRTPEVTCVVVDVSHEDPEVKFNWYVDGVEVHNAKTKPREEQYNSTYRVVSVLTVLHQDWLNGKEYKCKVSNKALGAPIEKTISKAKGQPREPQVCTLPPSRDELTKNQVSLSCAVKGFYPSDIAVEWESNGQPENNYKTTPPVLDSDGSFFLVSKLTVDKSRWQQGNVFSCSVMHEALHNRFTQKSLSLSPGA","directed T cell lysis of CLL cell lines, EC50",[13],0.00012 nM
same,fold increase in lysis potency compared to RC-1/V9 scFv-Fc,[13],25 fold
same,"fold lower lysis EC50 than CD19/V9 scFv-Fc (MEC1-002, E:T 1:30, 48 h)",[13],~3 fold
same,"fold lower lysis EC50 than RC-1/V9 scFv-Fc (MEC1-002, E:T 1:30, 48 h)",[13],> 10 fold
same,"specific lysis of MEC1-002 cells at E:T 1:30, EC50",[13],0.0011 nM
same,"specific lysis of primary CLL cells by autologous T cells, day 11, median",[13],24.9%
same,"EC50 (read off the curve), NFAT reporter activation with MEC1-002 cells",[14],~0.04 nM
same,Kd,[15],0.79 nM
same,Kd,[11],0.15 nM
same,koff,[11],0.00045 s⁻¹
same,kon,[11],2.96e+06 M⁻¹ s⁻¹
same,EC50 (read off the curve),[12],~0.1 nM
"JML-1 biotinylated IgG1 (antibody, V domains shown, Biotinylated IgG1; the biotin sites are not stated and are not carried in the letters.) VH: KVQLLESGGGLVQPGRSLRLSCAASGFTFDDYGMHWVRQAPGKGLEWVSGISWNSGSIGYADSVKGRFTISRDNSKNTLYLQMNSLRAEDTAVYYCARGGQTIDIWGQGTMVTVSS VL: not shown",binding result,[16],binds
"JML-1/V9 scFv-Fc (bispecific antibody, Knobs-into-holes heterodimer of the JML-1 scFv-Fc knob arm and the shared anti-CD3 V9 scFv-Fc hole arm; Both arms carry N297A; also called JML-1 clone T-biAb) chain 1: not shown chain 2: EVQLVESGGGLVQPGGSLRLSCAASGYSFTGYTMNWVRQAPGKGLEWVALINPYKGVSTYNQKFKDRFTISVDKSKNTAYLQMNSLRAEDTAVYYCARSGYYGDSDWYFDVWGQGTLVTVSSGGGGSGGGGSGGGGSDIQMTQSPSSLSASVGDRVTITCRASQDIRNYLNWYQQKPGKAPKLLIYYTSRLESGVPSRFSGSGSGTDYTLTISSLQPEDFATYYCQQGNTLPWTFGQGTKVEIKEPKSSDKTHTCPPCPAPELLGGPSVFLFPPKPKDTLMISRTPEVTCVVVDVSHEDPEVKFNWYVDGVEVHNAKTKPREEQYASTYRVVSVLTVLHQDWLNGKEYKCKVSNKALPAPIEKTISKAKGQPREPQVCTLPPSRDELTKNQVSLSCAVKGFYPSDIAVEWESNGQPENNYKTTPPVLDSDGSFFLVSKLTVDKSRWQQGNVFSCSVMHEALHNHYTQKSLSLSPGA","specific lysis of MEC1-hS6 by healthy donor T cells, EC50",[13],0.0024 nM
same,"specific lysis of primary CLL cells by autologous T cells, day 11, median",[13],8.8%
same,"EC50 (read off the curve), NFAT reporter activation with MEC1-002 cells",[17],~0.08 nM
same,Kd,[18],0.61 nM
same,EC50 (read off the curve),[12],~0.07 nM
